Measured values reported in patent publication US20220315554A1, “COMPOUNDS COMPRISING A […] LIGAND AND USE THEREOF” (priority 2019, published 2022).

Experiments:
[1] = target: Activated Protein C (Homo sapiens (Human)) (UniProt P04070)
[2] = target: T1, Cathepsin F (Homo sapiens (Human)) (UniProt Q9UBX1)
T1 sequence: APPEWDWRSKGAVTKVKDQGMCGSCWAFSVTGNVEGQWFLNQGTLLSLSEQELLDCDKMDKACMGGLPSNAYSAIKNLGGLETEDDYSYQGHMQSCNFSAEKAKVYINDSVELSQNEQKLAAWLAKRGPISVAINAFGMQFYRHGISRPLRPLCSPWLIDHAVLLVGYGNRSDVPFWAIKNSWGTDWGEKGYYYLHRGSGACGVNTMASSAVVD

[3] = target: T2, DPP3 (Homo sapiens (Human)) (UniProt Q9NY33)
T2 sequence: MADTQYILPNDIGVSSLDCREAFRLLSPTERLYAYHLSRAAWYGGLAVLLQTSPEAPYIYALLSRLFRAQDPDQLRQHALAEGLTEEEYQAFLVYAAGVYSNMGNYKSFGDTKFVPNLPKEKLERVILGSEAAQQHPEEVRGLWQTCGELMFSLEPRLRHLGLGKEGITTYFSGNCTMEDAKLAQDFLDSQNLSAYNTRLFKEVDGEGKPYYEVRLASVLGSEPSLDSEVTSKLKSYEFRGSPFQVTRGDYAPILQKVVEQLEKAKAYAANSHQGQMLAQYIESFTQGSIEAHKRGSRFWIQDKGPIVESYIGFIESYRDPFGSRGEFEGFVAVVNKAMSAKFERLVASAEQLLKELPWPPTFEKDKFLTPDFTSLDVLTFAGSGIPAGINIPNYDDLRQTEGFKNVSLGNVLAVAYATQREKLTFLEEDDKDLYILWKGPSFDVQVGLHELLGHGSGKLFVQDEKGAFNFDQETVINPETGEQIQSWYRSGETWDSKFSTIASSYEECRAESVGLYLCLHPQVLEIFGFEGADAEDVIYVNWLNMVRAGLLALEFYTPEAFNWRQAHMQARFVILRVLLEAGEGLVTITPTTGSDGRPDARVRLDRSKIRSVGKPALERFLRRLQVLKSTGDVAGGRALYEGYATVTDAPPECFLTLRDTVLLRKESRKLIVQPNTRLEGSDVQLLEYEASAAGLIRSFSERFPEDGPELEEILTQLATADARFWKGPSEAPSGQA

[4] = target: T3, Ubiquitin carboxy-terminal hydrolase 2 (Homo sapiens (Human)) (UniProt O75604)
T3 sequence: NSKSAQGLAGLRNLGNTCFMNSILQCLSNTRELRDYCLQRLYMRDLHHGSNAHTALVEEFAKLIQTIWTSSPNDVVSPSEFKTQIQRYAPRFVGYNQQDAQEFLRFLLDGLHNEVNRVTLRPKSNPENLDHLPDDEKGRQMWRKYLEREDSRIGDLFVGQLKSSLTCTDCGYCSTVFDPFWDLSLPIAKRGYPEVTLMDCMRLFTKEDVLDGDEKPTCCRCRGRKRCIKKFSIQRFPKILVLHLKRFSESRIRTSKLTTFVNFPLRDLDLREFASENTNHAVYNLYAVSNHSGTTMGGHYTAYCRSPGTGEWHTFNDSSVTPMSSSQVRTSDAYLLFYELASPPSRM

[5] = target: T4, Ubiquitin carboxy-terminal hydrolase L3 (Homo sapiens (Human)) (UniProt P15374)
T4 sequence: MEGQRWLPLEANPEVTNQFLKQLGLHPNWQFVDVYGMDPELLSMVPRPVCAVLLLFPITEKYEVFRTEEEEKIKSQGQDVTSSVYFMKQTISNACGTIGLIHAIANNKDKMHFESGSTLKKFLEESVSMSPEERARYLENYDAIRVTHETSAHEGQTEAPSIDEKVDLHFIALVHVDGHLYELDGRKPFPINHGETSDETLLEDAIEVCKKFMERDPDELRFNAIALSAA

[6] = target: T5, Recombinant human FAP (R&D systems, #3715-SE) (human)
T5 sequence: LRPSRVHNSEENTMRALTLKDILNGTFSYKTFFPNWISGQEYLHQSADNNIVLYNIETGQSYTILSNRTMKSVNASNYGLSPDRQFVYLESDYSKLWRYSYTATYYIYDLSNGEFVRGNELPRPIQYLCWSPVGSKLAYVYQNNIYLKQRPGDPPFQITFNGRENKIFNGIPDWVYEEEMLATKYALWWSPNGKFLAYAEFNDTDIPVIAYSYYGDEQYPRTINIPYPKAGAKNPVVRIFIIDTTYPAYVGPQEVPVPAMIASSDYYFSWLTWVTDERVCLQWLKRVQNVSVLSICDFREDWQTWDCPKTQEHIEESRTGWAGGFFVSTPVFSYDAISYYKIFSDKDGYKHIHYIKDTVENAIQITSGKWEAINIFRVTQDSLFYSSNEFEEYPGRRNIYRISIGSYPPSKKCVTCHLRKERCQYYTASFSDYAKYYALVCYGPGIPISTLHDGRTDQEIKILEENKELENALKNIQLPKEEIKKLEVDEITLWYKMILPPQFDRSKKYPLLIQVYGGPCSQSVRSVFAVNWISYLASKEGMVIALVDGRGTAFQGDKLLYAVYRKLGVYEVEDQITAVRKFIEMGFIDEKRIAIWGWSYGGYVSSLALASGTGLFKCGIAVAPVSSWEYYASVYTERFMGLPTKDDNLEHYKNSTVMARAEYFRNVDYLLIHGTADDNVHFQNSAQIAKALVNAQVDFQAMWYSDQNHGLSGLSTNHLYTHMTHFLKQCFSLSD

Chain of Activated Protein C (Homo sapiens (Human)) (P04070 43-461): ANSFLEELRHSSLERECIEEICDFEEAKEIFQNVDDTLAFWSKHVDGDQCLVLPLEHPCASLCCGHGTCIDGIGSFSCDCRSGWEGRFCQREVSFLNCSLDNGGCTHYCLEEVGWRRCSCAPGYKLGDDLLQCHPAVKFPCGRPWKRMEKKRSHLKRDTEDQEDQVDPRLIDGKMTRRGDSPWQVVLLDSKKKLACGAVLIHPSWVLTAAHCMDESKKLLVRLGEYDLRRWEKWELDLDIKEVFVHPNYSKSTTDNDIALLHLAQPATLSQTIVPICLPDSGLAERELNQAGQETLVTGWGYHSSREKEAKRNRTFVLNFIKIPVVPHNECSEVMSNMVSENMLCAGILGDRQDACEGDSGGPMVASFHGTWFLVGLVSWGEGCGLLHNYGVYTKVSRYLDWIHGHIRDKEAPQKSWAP

Percentage inhibition (%) at 10 µM [1] [%] | Percentage inhibition (%) at 10 µM [2] [%] | Percentage inhibition (%) at 10 µM [3] [%] | Percentage inhibition (%) at 10 µM [4] [%] | Percentage inhibition (%) at 10 µM [5] [%] | pIC50 Category (Activity) [6] [pIC50] | Substance
1 | -25 | -1 | -1 | 0 |  | Hex-[Cys(tMeBn(DOTA-AET))-Pro-Pro-Thr-Gln-Phe-Cys]-OH (peptide)
8 | -24 |  | 7 | 14 | > 8 | Hex-[Cys(tMeBn(DOTA-PP))-Pro-Pro-Thr-Gln-Phe-Cys]-Asp-NH2 (peptide)
